Assay results: publication PMC5949987
Blank lines part the entries; values can stand above or below the substance they belong to.

Experiments:
β2AR–SmBit = β2AR–SmBit (UniProt P07550); experiment: split reporter (BiFC, NanoBiT); NanoLuc complementation in intact HEK 293 cells cotransfected with receptor–SmBit and LgBit–mG; total luminescence with furimazine against agonist concentration
cerulean–β2AR = cerulean–β2AR (UniProt P07550); experiment: calibrated confocal fluorescence intensities at the plasma membrane; HEK 293 cells expressing cerulean-β2AR and venus–mGs, 10 μM isoproterenol, steady state; venus and cerulean intensities calibrated with the standard protein cerulean–TM–venus; n = 17
β2AR–Rluc8 = β2AR–Rluc8 (UniProt P07550); experiment: FRET or BRET; intact HEK 293 cells with agonist; receptor–Rluc8 or receptor–Nluc as donor, NES–venus–mG as acceptor; net BRET; DPBS, 96-well plates

fold increase in luminescence intensity on agonist stimulation (β2AR–SmBit): < 20 fold
Substance: LgBit–mGs

stoichiometry N (venus–mGs per cerulean–β2AR) (cerulean–β2AR): 1.17
Substance: venus–mGs (domain or fragment)

time to dissociate after addition of the inverse agonist ICI 118,551 (β2AR–Rluc8): > 15 min
Substance: NES–venus–mGs (domain or fragment)
